Experimental data as given in paper PMC3496724.

How the values were obtained:
[1] = biological target: HIV-1 Tat protein (wild type, biologically active) (HIV-1 (human T lymphotropic virus type IIIB-BH-10, subtype B)) (UniProt P04610); test: SPR; BIACORE 3000; Tat immobilised by amine coupling on a CM3 chip; Env (5–1,000 nM) flowed in PBS pH 7.4 with 0.2% Tween 20, 300 mM NaCl, 5 mg/mL dextran; blank reference surface subtracted; single-site model
[2] = biological target: HIV-1 Tat protein (wild type, biologically active) (HIV-1 (human T lymphotropic virus type IIIB-BH-10, subtype B)) (UniProt P04610); test: ITC; VP-ITC; Tat (1.25 to 4.4 µM) in the cell, trimeric Env (12.5 to 47.0 µM in protein subunit) in the syringe; PBS pH 7.4

Substance | Kd [1] [nM] | T1/2 (complex dissociation half life) [1] [min] | koff [1] [s⁻¹] | kon [1] [M⁻¹ s⁻¹] | Kd [2] [nM] | stoichiometry N (Tat per gp120 subunit) [2]
monomeric ΔV2 Env (clade B, HIV-1 SF162) (natural protein) | 91 | 23 | 0.00049 | 5900 |  | 
trimeric wt Env (clade B, HIV-1 SF162) (natural protein) | 38 | 23 | 0.00049 | 14000 | 111 | 1
trimeric ΔV2 Env (clade B, HIV-1 SF162) (natural protein) | 22 | 230 | 5e-05 | 2600 |  | 
